Test results taken from article PMC12487280.

How the values were obtained:
[1] = Western blot of UBAP2L, ccRCC cells; settings: glycan lost; control: shCtrl / untreated
[2] = CHX-chase, Western blot, ccRCC cells; settings: glycan lost; control: WT / shCtrl / untreated
[3] = UBAP2L/G3BP1 immunostaining, granules per cell; settings: glycan lost; control: sunitinib without OSMI-1
[4] = CCK-8 dose response, 786-O and Caki-1; settings: glycan lost; control: UBAP2L-WT overexpression
[5] = UBAP2L/G3BP1 immunostaining after sunitinib; settings: glycan lost; control: UBAP2L-WT overexpression

B1: UBAP2L: OSMI-1 (protein)
parent chain: MMTSVGTNRARGNWEQPQNQNQTQHKQRPQATAEQIRLAQMISDHNDADFEEKVKQLIDITGKNQDECVIALHDCNGDVNRAINVLLEGNPDTHSWEMVGKKKGVSGQKDGGQTESNEEGKENRDRDRDYSRRRGGPPRRGRGASRGREFRGQENGLDGTKSGGPSGRGTERGRRGRGRGRGGSGRRGGRFSAQGMGTFNPADYAEPANTDDNYGNSSGNTWNNTGHFEPDDGTSAWRTATEEWGTEDWNEDLSETKIFTASNVSSVPLPAENVTITAGQRIDLAVLLGKTPSTMENDSSNLDPSQAPSLAQPLVFSNSKQTAISQPASGNTFSHHSMVSMLGKGFGDVGEAKGGSTTGSQFLEQFKTAQALAQLAAQHSQSGSTTTSSWDMGSTTQSPSLVQYDLKNPSDSAVHSPFTKRQAFTPSSTMMEVFLQEKSPAVATSTAAPPPPSSPLPSKSTSAPQMSPGSSDNQSSSPQPAQQKLKQQKKKASLTSKIPALAVEMPGSADISGLNLQFGALQFGSEPVLSDYESTPTTSASSSQAPSSLYTSTASESSSTISSNQSQESGYQSGPIQSTTYTSQNNAQGPLYEQRSTQTRRYPSSISSSPQKDLTQAKNGFSSVQATQLQTTQSVEGATGSAVKSDSPSTSSIPPLNETVSAASLLTTTNQHSSSLGGLSHSEEIPNTTTTQHSSTLSTQQNTLSSSTSSGRTSTSTLLHTSVESEANLHSSSSTFSTTSSTVSAPPPVVSVSSSLNSGSSLGLSLGSNSTVTASTRSSVATTSGKAPPNLPPGVPPLLPNPYIMAPGLLHAYPPQVYGYDDLQMLQTRFPLDYYSIPFPTPTTPLTGRDGSLASNPYSGDLTKFGRGDASSPAPATTLAQPQQNQTQTHHTTQQTFLNPALPPGYSYTSLPYYTGVPGLPSTFQYGPAVFPVAPTSSKQHGVNVSVNASATPFQQPSGYGSHGYNTGVSVTSSNTGVPDISGSVYSKTQQSFEKQGFHSGTPAASFNLPSALGSGGPINPATAAAYPPAPFMHILTPHQQPHSQILHHHLQQDGQTGSGQRSQTSSIPQKPQTNKSAYNSYSWGAN
decreases: expression_or_secretion [1] | degradation_or_half_life [2] | other: stress granule formation [3]

B2: UBAP2L: S305A (protein)
parent chain: B1 parent chain
decreases: degradation_or_half_life [2] | other: sunitinib resistance of cells, IC50 [4] | other: stress granule formation [5]
